From the supplement of paper PMC10567573

B1: C10orf62 (parent)
chain: RALEEVEMKLQKNFLTQRENTIAG
B2: NETO1 (parent)
chain: GFSPIIGRFCGQQNPPVIKSSGRF

Variants of: B1
Assay: protein stability index of a GFP-peptide fusion (GPS, HEK-293T) (PSI 1-6); higher = more stable
Details: c terminus: a fixed tail appended
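Further: lentivirally expressed fusions sorted by FACS into six bins by GFP to DsRed ratio, PSI derived from sequencing read proportions per bin multiplied by bin number.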

Protein stability index, by site and new letter:
E7: G 2.84, D 3.69, C 1.8, K 1.96, A 2.02, H 2.17, F 2.17, I 3.36
L3: K 4.33, S 4.05, Q 4.47, H 4.34, W 2.95, E 5.08, A 4.17, V 4.27, N 4.91, R 4.09, T 4.12, C 4.02, D 4.8, F 4.04, Y 3.5, P 4.26, G 4.31, M 3.86, I 4.17
V6: S 4.27, Y 4.03, M 3.23, C 3.56, H 4.58, R 4.13, G 4.3, Q 3.93, E 4.75, T 3.73, A 3.19, F 3.76, D 4.17, N 4.33, K 4.43, L 3.52, I 2.52, P 4.17, W 3.76
A2: V 2.96, P 4.4, I 2.66, D 4.1, C 3.27, M 2.6, L 2.61, K 3.7, Q 4.32, T 3.83, N 3.89, G 4.1, H 3.55, Y 2.98, F 2.54, W 2.29, E 4.41, S 3.9, R 3.61
E4: H 3.18, G 4.05, Y 2.56, Q 2.89, W 1.92, P 4.36, N 3.29, K 3.36, D 3.44, C 3.31, R 4, I 1.99, F 3.13, T 3.72, S 3.64, V 2.36, L 2.31, A 2.9, M 2.63
R1: A 3.89, M 3.33, F 3.17, T 4.32, P 4.55, H 3.69, E 4.39, Q 3.5, K 3.6, C 1.89, Y 3.29, D 4.49, N 4.37, S 3.85, I 2.91, W 3.15, L 2.54, V 3.1, G 4.34
E5: Y 2.27, W 1.85, G 3.6, Q 3.22, S 3.51, T 3.02, M 2.23, R 3.12, A 2.7, P 3.19, V 1.51, F 2.11, I 1.93, N 3.98, H 3.02, L 2, C 2.21, K 3.76, D 3.67

Variants of: B2
Assay: as above
Details: c terminus: a fixed tail appended

Protein stability index, by site and new letter:
G11: I 1.83, C 1.6, W 2.26, Y 1.89, Q 2.38, A 2.01, D 2.76, V 2.36, P 2.58, M 1.51, R 1.63, N 2.17
P15: N 2.52, E 2.27, A 2.44, V 2.14, F 2.34, W 2.13, Q 1.96, K 1.99, R 1.65, C 2.19, L 2.59
K19: N 1.65, G 3.23, L 2.3, Q 1.42
Q12: D 2.53, F 1.8, M 1.94, A 1.57, G 2.26, K 2.33, N 2.35, C 2.32, R 1.78, P 2.75
N14: K 2.04, V 1.24, F 2.26, D 2.48, I 1.92, H 2.18
P16: H 2.18, W 1.32, Q 1.69, A 2.03, F 1.85, Y 2.24, N 1.73
S21: A 2.88, L 1.75, Q 2.08, H 2.06, G 2.53, W 1.8, D 1.82, N 2.09, V 2.15, R 2.26, F 1.68
R23: M 1.96, D 2.3, I 1.65, P 3.38, N 2.09, S 1.94
C10: A 3.07, H 2.38, K 2.93, W 2.3, L 2.79, I 2.86
S20: A 2.67, C 2.18, H 2.16, Y 1.43, P 2.45, W 1.99, M 1.66, V 1.68, I 1.58, D 1.55, Q 2.67
F2: N 2.78, A 2.35, L 2.55, C 2.73, I 2.25, Q 2.91, M 2, P 2.5, T 2.46, Y 2.02
R8: H 1.79, E 3.19, K 2.19, N 2.04, L 1.83, M 1.76, V 2.23, D 2.63, P 2.61
V17: Y 2.12, C 1.62, D 2.75, M 2.88, E 2.54, P 2.22, G 2.62, F 1.66, K 2.5
G7: I 2.88, M 1.56, A 1.73, S 2.3, N 2.38, K 1.89, D 2.66, T 2.47
G1: A 2.17, D 1.6, V 1.93, M 1.98, Y 1.93, F 1.86, C 1.6, S 2.04, W 2.02
I5: F 1.79, H 2.59, V 1.87, R 2.79, P 2.79, A 2.05, L 2.17, E 3.22, T 2.36, N 2.34, D 2.92
F24: L 3.69, T 2.65, S 3.88, G 3.51, P 2.51, W 1.6, E 2.76, V 2.42, M 1.97
G22: I 1.73, M 1.65, E 1.63, L 2.81, A 1.87, S 2, F 1.82, W 2.14, P 2.15, D 2.06, Q 2.35
I6: F 2.16, V 2.15, A 2.1, D 3.54, P 2.95, H 2.77, K 3.17
Q13: V 2.36, F 1.75, Y 2.22, I 2.17, C 1.42, G 1.89, T 3.12
P4: T 1.26, C 1.88, A 2.12, W 1.91, S 1.99, F 2.09, Q 1.91, M 2.36, R 1.82, Y 2.44, G 1.74, N 1.69, V 1.87
I18: N 3.43, W 2.1, T 2.15, C 2.65, V 3.01, M 2.17, L 2.17
S3: T 2.4, R 2.04, M 1.84, G 2.2, A 2.6, I 1.71, Q 2.49, F 2.56, H 2.03, L 1.68
F9: G 1.97, T 1.75, A 2.87, E 3.73, D 3.31, H 1.69, K 2.49, S 1.98
